The supplement of paper PMC9170038

Tested on: MS2 coat protein
Assay: apparent KD of MS2 coat protein; designed switch direction (-1 OFF switch, 1 ON switch): -1; higher = weaker reporter binding
How it was run: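 The apparent KD reported per design is the median over clusters of curve fits to normalised cluster fluorescence. The RNA switches were transcribed on Illumina chips by stalled E. coli RNA polymerase. SNAP-549-labelled MS2 coat protein was titrated from 0.7 or 1.5 nM, doubling up to 3 µM, in Tris-HCl pH 7.5 buffer containing KCl, MgCl2, BSA, DTT, tRNA and Tween-20, with no input, 200 uM small-molecule ligand, or an oligonucleotide input.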

[1] = input ligand: microRNA oligo, concentration not stated
[2] = Eterna round: R95, input ligand: microRNA oligo, concentration not stated

Row | Sequence | apparent KD of MS2 coat protein (input ligand: FMN 200 uM) [nM] | apparent KD of MS2 coat protein (input ligand: none) [nM] | apparent KD of MS2 coat protein [2] [nM] | other results
1 | UCGAUGUAAGGAUAUCGUGCAAGUUUCAAAAGAGGCUUGUGCGAGAAGGUACAUGAGGAUCACCCAUGUAGGUU [Omei Ex4 B7] (Eterna round: R97, puzzle: Exclusion 4) | 207 | 75.6 | – | –
2 | UCGCUCCGUGUAGGAUAUCGCCGUACCACUCGGCGAGAAGGACAUGAGGAUCACCCAUGUAUGUUAUUAUCACGUGUGGCGCGC [Design 52] (Eterna round: R96, puzzle: Exclusion NG 1) | 33.5 | 18.7 | – | apparent KD of MS2 coat protein [1]: 19 nM
3 | UCGCUCCGUGUAGGAUAUCGCCGUACGAUGCGGCGAGAAGGACAUGAGGAUCACCCAUGUAUGUUAUUAUCACGCGUGGCGCAA [Design 62] (Eterna round: R96, puzzle: Exclusion NG 1) | 21.3 | 16.5 | – | apparent KD of MS2 coat protein [1]: 11.3 nM
4 | UCGCUCCGUGUAGGAUAUCGCCGUUCUAUUCGGCGAGAAGGACAUGAGGAUCACCCAUGUAUGUUAUUAUCACGCGUGGCGCAA [Design 58] (Eterna round: R96, puzzle: Exclusion NG 1) | – | – | – | apparent KD of MS2 coat protein [1]: 12.5 nM
5 | UCGCUGCGAGGAUAUACAUGAGGAUCACCCAUGUACGGGUCCGGGUUUGAGUUGAUGAGUAGAAGGCGCAGUGA [JL Laongeedie mod 13] (puzzle: Exclusion 3) | – | – | 79.2 | –
6 | UCGCUGCGAGGAUAUACAUGAGGAUCACCCAUGUACGGGUCCGGGUUUUCGUCCAUUAGUAGAAGGCGCAGUGA [JL Laongeedie mod 1] (puzzle: Exclusion 3) | – | – | 136 | –
7 | UCGCUGCGAGGAUAUACGUGCGCGCGCUCGCGUGCGCGCGUACAUGAGGAUCACCCAUGUAGAAGGCGCGCUGC [Apr-15 SS2-4] (puzzle: Exclusion 2) | – | – | 13.4 | –
8 | UCGCUGCGAGGAUAUACGUUUGCGCGCUUUCGUUUGCGCGUACAUGAGGAUCACCCAUGUAGAAGGCGCGCCGC [Apr-15 SS2-8] (puzzle: Exclusion 2) | – | – | 13.2 | –
9 | UCGGAUAGAGGAUAUACAUGAGGAUCACCCAUGUGGUCAAGCGGGUACGCCCAGCGAGGUAGAAGGCUAUCCGG [Eternabot (L1) Solution 16] (Eterna round: R97, puzzle: Exclusion 3) | 407 | 136 | – | –
10 | UCGGCGCGAGGAUAUACGUUUGCGCGUUUUCGUUUUUGCGUACAUGAGGAUCACCCAUGUAGAAGGCGCGCCGC [Apr-15 SS2-16] (puzzle: Exclusion 2) | – | – | 11.4 | –
11 | UCGGCGCGAGGAUAUGCGGCUGGUGCUUCGGGCCCUCGCGUACAUGAGGAUCACCCAUGUAGAAGGCGCGCCGC [Apr-15 SS2-43] (puzzle: Exclusion 2) | – | – | 20.5 | –
12 | UCGGCGCGAGGAUAUGCGGCUUGUGCUUCGGGCCCUCGCGUACAUGAGGAUCACCCAUGUAGAAGGCGCGCCGC [Apr-15 SS2-44] (puzzle: Exclusion 2) | – | – | 53.8 | –
13 | UCGGCGCGAGGAUAUGCGGUUUGUGCUUUGGGCCCUCGCGUACAUGAGGAUCACCCAUGUAGAAGGCGCGCCGC [Apr-15 SS2-46] (puzzle: Exclusion 2) | – | – | 95.6 | –
14 | UCGGGAAGAGGAUAUACAUAGAAAUAGAUUCAUGUAAAACUACAUGAGGAUCACCCAUGUAGAAGGCUUUCCGU [Mat - Exclusion 2 - JL Mod - D55] (Eterna round: R97, puzzle: Exclusion 2) | 146 | 24.2 | – | –
15 | UCGGUGCGAGGAUAUACGUUUGCGCGUUUUCGUUUGCGCGUACAUGAGGAUCACCCAUGUAGAAGGCGCGCGGC [Apr-15 SS2-12] (puzzle: Exclusion 2) | – | – | 11.8 | –
16 | UCGUAGUCAGGAUAUACAUGAGGAUCACCCAUGUAAAAUUUUAAUUUAAUUUUAAGGUGUAGAAGGGACCAUUU [Ex3 #21] (Eterna round: R97, puzzle: Exclusion 3) | 46.7 | 45.8 | – | –
17 | UCGUCCUGUGUAGGAUAUCGCGGGCUUUGCCCGCGAGAAGGACAUGAGGAUCACCCAUGUGGGCCGCGCCGCGGGCGCGGCCCA [new design] (Eterna round: R96, puzzle: Exclusion NG 1) | 1360 | 230 | – | apparent KD of MS2 coat protein [1]: 4700 nM
18 | UCGUGGAUCGAGGAUAUGCCACGGACAGACGCCGCAGAAGGCGAAACAUGAGGAUCACCCAUGUGUGCCAUCCU [Eternabot (L1) Solution 52] (Eterna round: R97, puzzle: Exclusion 6) | 58.5 | 56.5 | – | –
19 | UCGUGUAUAGAGGAUAUAUUAUUUAUUUAAACAAUAGAAGGCUAAACAUGAGGAUCACCCAUGUAUUUGGUUUU [JR_Ex6_Sub052] (Eterna round: R97, puzzle: Exclusion 6) | 59.9 | 21.8 | – | –

Row | Sequence | apparent KD of MS2 coat protein (input ligand: FMN 200 uM) [nM] | apparent KD of MS2 coat protein (input ligand: none) [nM] | apparent KD of MS2 coat protein [2] [nM] | other results
20 | UCGUGUCGAGAGGAUAUCUAGGACACCCUUCCAAGAGAAGGCUUGACAUGAGGAUCACCCAUGUACGGGUAAAU [EX6 A.9] (Eterna round: R97, puzzle: Exclusion 6) | 25.6 | 39.9 | – | –
21 | UCGUGUCUUGAGGAUAUGUUUGAAAAGGCCCACGCAGAAGGCGAGACAUGAGGAUCACCCAUGUCACAGCUCCG [EX6 C.16] (Eterna round: R97, puzzle: Exclusion 6) | 56.4 | 18.6 | – | –
22 | UCGUUCCGUGUAGGAUAUUGGCCUUCCCUGGGCCGAGAAGGACAUGAGGAUCACCCAUGUAUGUUAUUAUCGCGCGUGGCGCAU [Design 86] (Eterna round: R96, puzzle: Exclusion NG 1) | 73.9 | 18.4 | – | apparent KD of MS2 coat protein [1]: 14.5 nM
23 | UCGUUGUGAGGAUAUAUAUGCAGUAAUCCUUUAAAUUUAUAACUUGAGGAUCACCCAAGUAGAAGGCGCGACGU [JR_Ex2_Sub056] (Eterna round: R97, puzzle: Exclusion 2) | 160 | 30.2 | – | –
24 | UCGUUUUUUGAGGAUAUGCGACGUUCCUUCGUCGUAGAAGGCGAUACAUGAGGAUCACCCAUGUUUAUGGGCAU [LRO-Ex6-16] (puzzle: Exclusion 6) | – | – | 109 | –
25 | UCUAGCUUUUUGCGUCAAGCAUUGAAGUCUGUUAUCGUUACAUGAGGAUCACCCAUGUUUGUUUUAUGUCGUCUUGA [JR_SV3TOV2_Sub100] (puzzle: Sensor v3, turn-off variant 2) | – | – | 15.6 | apparent KD of MS2 coat protein (Eterna round: R95, input ligand: FMN 200 uM): 19.3 nM; apparent KD of MS2 coat protein (Eterna round: R95, input ligand: none): 22.2 nM
26 | UCUAGUUGGCAAGGAUAUCCUACAUUGUUCUGGCCCGGGCAUGCUACAUGAGGAUCACCCAUGUGGGAGAAGGUGCGUCAUUGC [Design 22] (Eterna round: R96, puzzle: Exclusion NG 2) | 70.9 | 82.1 | – | apparent KD of MS2 coat protein [1]: 50.5 nM
27 | UCUCGCGGGCAAGGAUAUCCUACGCUGUUCUGGCCCGUGUUUGUUACAUGAGGAUCACCCAUGUGGGAGAAGGUGCACCAGGGC [Design 41] (Eterna round: R96, puzzle: Exclusion NG 2) | 62 | 76.4 | – | apparent KD of MS2 coat protein [1]: 36.5 nM
28 | UCUGCCGCCGUGAGGAUAUGCCCGCGCGCCCGCGGGCAGAAGGCACAUGAGGAUCACCCAUGUCCCGCGGCAUU [salish99_bmx4_r4_128] (Eterna round: R97, puzzle: Brourd's mod of Exclusion 4) | 36.4 | 17.4 | – | –
29 | UCUGGAGCAGGAUAUAUAUGACGUGCUUCGGCACGGUGAGUACAUGAGGAUCACCCAUGUAGAAGGGCUCCAGA [Exclusion 2 (Mod of Brourd's E2/9-D2)] (Eterna round: R97, puzzle: Exclusion 2) | 81.8 | 20.3 | – | –
30 | UCUGGUCGAGGAUAUACAUGAGGAUCACCCAUGUGAUUAGCAGUCCUCGGACUGCAAUGUAGAAGGCGACCAGA [E3/2-A3] (Eterna round: R97, puzzle: Exclusion 3) | 894 | 393 | – | –
31 | UCUGUACAUCCCAAGCAUAACAUGAGGAUCACCCAUGUUGAACAAAACGUCGGUCCUGCUGCUCGUCGAAGGAAUAG [Eternabot (Original) Solution 8] (Eterna round: R97, puzzle: Sensor, turn-off variant 1) | 47.4 | 47.5 | – | –
32 | UCUUACUGAGGAUAUACAUAGAUUUACAUGAGGAUCACCCAUGUUCCUCUAAGUAUAUAUGUAGAAGGCAGAAGAA [Mat - Exclusion 5 - JL Mod - D43] (Eterna round: R97, puzzle: Exclusion 5) | 139 | 370 | – | –
33 | UCUUACUGAGGAUAUACUUAGAUUUACAUGAGGAUCACCCAUGUUCCUCUAUGUAUAUAUGUAGAAGGCAGAAGAA [Mat - Exclusion 5 - JL Mod - D46] (Eterna round: R97, puzzle: Exclusion 5) | 241 | 37.1 | – | –
34 | UCUUGUGUUGAGGAUAUGCGCCGGCUCGCUGGCGCAGAAGGCGGCACAUGAGGAUCACCCAUGUCAGUUCGCGC [salish99_ex6_r004_007] (Eterna round: R97, puzzle: Exclusion 6) | 56.3 | 205 | – | –
35 | UCUUUACAUGAGGAUCACCCAUGUGAGGAUAUGGUUUCGCUGGCCGUAGCCAGUGGAACCAGAAGGCGCGUGAU [Mat - Exclusion 1 - JL Mod - D25] (Eterna round: R97, puzzle: Exclusion 1) | 55.1 | 70.9 | – | –
36 | UCUUUCUUUGUGAGGAUAUGCCCAAAUAAAAGCGGGCAGAAGGCACAUGAGGAUCACCCAUGUCCUGCGGUUUU [salish99_bmx4_r4_147] (Eterna round: R97, puzzle: Brourd's mod of Exclusion 4) | 174 | 16.5 | – | –
37 | UGAAAGCUAGGAUAUACAUGAGGAUCACCCAUGUACCGGCUUGGCCCUGGUCCAAAGUGUAGAAGGAGCACGCC [Reedcedima] (puzzle: Exclusion 3) | – | – | 24.8 | –
